Measurements reported in the nanobody polyreactivity screen of Harvey et al. (2022).

Experiment: yeast display, Sf9 membrane polyspecificity reagent, FACS + sequencing; frameworks hold sequencing errors
How it was run: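 Synthetic nanobody libraries on Saccharomyces cerevisiae BJ5465 were galactose-induced for 36–48 hours, stained 1 hour at 4 °C with 10% biotinylated, detergent-solubilized Sf9 membrane reagent and enriched on streptavidin microbeads. FACS then separated cells into low and high (top ~1%) gates by anti-HA (expression) and streptavidin (reagent binding) fluorescence. Genes were colony-PCR amplified, MiSeq 2 × 250 sequenced and CDR-length filtered. A clone's polyreactivity label is that of its gate of origin.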

Sequence | polyreactivity (PSR sort gate)
QVQLVESGGGLVQAGGSLRLSCAASGSIFGRYAMGWYRQAPGKERELVAAISWNGGSTYYADSVKGRFTISRDNAKNTVYLQMNILKPEDTAVYYCAADSGYSGYYYWGQGTQVTVSS | high polyreactivity
QVQLVESGGGLVQAGGSLRLSCAASGSILSYYAMGWYRQAPGKERELVAAISKTGGSTYYADSVKGRFTISRDNANNTVYLHMNSLKPEVTAVYYCAAVDNIGRYEYWGQGTQVTVSS | high polyreactivity
QVQLVESGGGLVQAGGSLRLSCAASGSTFPVYDMGWYRQAPGKERELVAAITAGVSTNYADSVKGRFTISRDNAKNTVYLQMNSQKPEDTAVYYCAKDFGLLPIRDDYWGQGTQETVSS | low polyreactivity
QVQLVESGGGLVQAGGSLRLSCAASGSTFTTNAMGLYRQEPGKERELVAAITSTGSTYADSVKGRFTISRDNAMNTVYLQMNSLKPEDTAVYYCAADTQWTTPYDYWGQGTQVTVSS | low polyreactivity
QVQLVESGGGLVQAGGSLRLSCAASGIIFATYAMGWYRQAPGKERELVASISTGDSTNYADSVKGRFTISRDNAKNTVYLQMNSLKPEDTAVDYCNADSYPYYVYGSNDYWGQGTQVTVSS | low polyreactivity
QVQLVESGGGFVQAGGSLRLSCAGSGRIYYRYAMGWYSQERGKERELVAAISGSVGSTYADYVKGRFTISRDNAKNTVYLQMKSLKPEDTAFYYCARETYGRYGAYDYWGQGTQVTVSS | low polyreactivity
QVQLVESGGGLVQAGGSLRLSCAASGITSWYYAMGWYRQAPGKERELVAAITSDGSTYYADSVKGRFTISRDNAKNTVYLQMNSLKPEDTAVYYCAAERDYWIPDSYLVGMDYWGQGTQVTVSS | low polyreactivity
QDHLVESWGGLIQAGCSLRISCAASGSITVYNAMGWYRQAPWKERELLAAITGGVTTNYADSVKGRFTISRDNAKTTFYLLMNSLKPEDTAVYYCAKSQIPFGLDSPVDYWGQGTQVNVSS | low polyreactivity
QVQLQESGGGLVQEGGSLRLSCAASGNISPPADMGWYRQAPGKERELVASIGTGGTTNYADSVKGRCTISRDNAKNTVYLQMNSLKPDDTAVYYCAAVRYEYNPYDYWGQGTQVTVSS | low polyreactivity
QVQLVESGGGLVEAGGSLRLSCAASGRIFLYKAMGWYRQAPVKERELVAAITASGGTTYYADSVKGRFTLSRDNAKNTVYLQMNSLKPEDTAVYYCNAYSYSGERYYWGQGTQVTVSS | high polyreactivity
QVQLVESGGGLVQAGGSLRFSCAASGRIFWYYVMGWDRQAPGKEREFVASISSGGSTYYADSVKGRFTISRDNANNTVYLQMNSLKPEDTAVYYCNAYVYGQRVWYDYWGQGTQVTVSS | high polyreactivity
QVQLVESGGGLVQAGGSLRLSCAASGSIFTAYAMGWYRPAPGKERELVAAITSGGSTNYADSVKGRFTISRDNAKNTVYLQMNSLKPEDTAVYYCNADDYWLDSWSSVLWYDYWGQGTQVTVSS | low polyreactivity
QVQLVESVGGLVQAGGSLRLSCAASVRTCRSNAMGWYRKAPGKEMEFVAAISISGTRTNYADSVKGRFTISRDNAKITVYLQMNSLKPEDTAVYYCARRYQIYDFFYHDLYDYWGQGTQVTVSS | low polyreactivity
QVQLVESGGGLVQAGGSLRLSCAASGFTFRTYAMGWYRQAPGKVRELVAAITVSGGTYYADSVKGRFTISRDNAKNTVYLQMNSLKPEDTAVYYCTAKRFRTGLDYWGQGTQVTVSS | low polyreactivity
QVQLVESGGGLVQAGGSLRLSCAASGSIFSYNAMGGYRPAPGKARELVAAITLSDGGTYYADSVKGRFTISRDNAKNTVYLQMNSLKPEDTAVYYCATTYWLWITYSAYYYWGQGSQVTVSS | low polyreactivity
QVQLVESGGGLVQAGGRLRLSCAASGSTIPPSAMGWYRQSPGKERELVAAITSGGSTYYADSVKGRLTISRDNAKNTVYIQLNSLKPEDTAVYYCNADQQTIRSAKNDYWGQGTQVTVSS | low polyreactivity
QVQLVESGGALVQAGGSLRLSCAASGIIFYSYAMGWYRQAPGKERELVAAISNNGGSTYADSVKGRFTISRDNAKNSVYLQMKSVKPEDTAVYYCAADPTGGVGFDGYYWGQGTQVTVSS | low polyreactivity
QVQLVESGGGLVQAGGSLRLSCAASGRIFSPYAMGWYRQAPGKERELVAAITRNGGRTYYADSVKGRFTISRDNAKNTVYLQMNSLKPEDTAVYYCAAAKQSGNDYWGQGTQVTVSS | low polyreactivity
QVQLVESGGGLVQAGGSLRLSCAASGSIFYWYAMGWYRQAPGKERELVAAISSSNDSTDYADSVKGRFTISRDNAKNTVYLQMNSLKPEDTAVYYCAARYGTIQYDYWGQGTQVTVSS | low polyreactivity
QVQLVESGGGLVQAGGSLRLSCAASGRTFSVNAMGWYRQAPGNERELVAARRTGDSTNYADSVKGRFTFSRDNAKYTVYLPMNSLKPEDTSVDYCAADVWGSSAQRGWRKYYYWGQGTQVTVSS | high polyreactivity
QVQLVESGGGLVQAGGSLRLSCAASGRIFFNYAMGWYRQAPGKQRELDAAITTNGGSTYYAVSVKGRFTISRDNAKNTVYLLMNSLKPEDTAVYYCNTRRKNFVKSSQVEYWGQGTQVTVSS | high polyreactivity
QVQLVESGGGLVQAGGSLRLSCAASGRISSNVMGWYRQAPGKERELVAAISVSGARTYYADSVKGRFTISRDNAKNTVYLQMNSLKPEDTAVYDCAAVYGGVYYGGDYWGQGTQVTVSS | high polyreactivity

Sequence | polyreactivity (PSR sort gate)
QVQLVESGGGLVQAGGSLRLSCAASGRIFRRYAMGWNRQAPGKEMELVAAISRSGGSTYYADSVKGRFTISRDNAKNTVYLQMNSLKPEDTAVYYCNRRYITYNYDYWGQGTQVTVSS | high polyreactivity
QVQLQESGGVLVQAGGSLRQSYAASGYIFPSLAMGWYRQAPGKEREFVAAIGRGSTNNYADSVKGRFTISRDNAKNTAYQQMNSLKPEDTAVYYCAAAASPLTRHLYWGQGTQVTVSS | low polyreactivity
QVQLVESGGGLVQARGSLRLSCAASGSTFDSNAMGCYRQAPGKERELVAAITRGGSTNYADSVKGRFTISRDNAKNTVYLQMNSLNPEDTAVYYCAAASETLGSATYGSGYDYWGQGTQVTVSS | low polyreactivity
QGQLVESGGGLVQAGGSLRLSCAASGRTFYLNAMGWYRQAPGKERELVAAINRGTRTYYADSVKGRFTISRDNAKNTVFLQMNSLKPDETAVYYCASVPRYYYSSSYTMDYWGQGTQVTVSS | high polyreactivity
QVQLVESGGGLVQAGRSHRLSCAASGIIFYKYAMGWYRQAPVKERELVAAISGTGGSTYYADSVKGRFTISRDNAKNTVYLQMNSVTAEDPAVYYCAATHYSFSWGYDYWGQGTQGTVSS | high polyreactivity
QVQLVESGGGLVQAGGSLRLSCAASGITFSRNAMGWYRQAPGKERELVATITSGGSTNYADSVKGRFTISRDNAKNTVYLQMNSLKPEDTAVYYCAVDYDSYWYGTYVNEYDYWGQGTQVTVSS | low polyreactivity
QVQLVESGGGLVQAGGSLRLSCATSGRTLGGYAMGWYRHAPGKERELVASITSTSSTYADSVKGRFTISRDNAKNTVYLQMNSLKPEDTAVYYCAADPRRYRGFGYVYGGFYYWGQGTQVTVSS | low polyreactivity
QVQLVESGGGLVQAGGSLRLSCAASGFTFTYYAMGWYRQAPAKERELVAAISSSGGRTYYADSVKGRFTISRDNAKNTVYLQMNSLKPEDTAVYYCAARSVSATPDFHYWGQGTQVTVSS | high polyreactivity
QVQLVESGGRLVQAGGSLRLSCAASGRTIGYYAMGWSRQAPGNEWELVAAISGSGGSTYYADSVKGRFTISRDNAKNTVYLQMNSLKPEDTAVYYCAATTQSRRYEYYYWGQGTQVTVSS | high polyreactivity
QVQLVESGGGLVQAGGSLRLSCAASGRTFSYYAMGWYRQAPGKERELVAGISWRGTSTYADSVKGRFTISRDNAKNTVYLQMNSLKPEDTAVYYWNAEVTGHYSYHKFDYWGQGTQVTVSS | low polyreactivity
QVQLVESGGGLVQAGGSLRLSCAASGFIFPYYAMGWYRQAPGKERELVATITSSGGSTYYADSVKGRFTISRDNAKNTVYLQMNSLKPEDTAVYYCAARRRYKYYGSRYDYWGQGTQVTVSS | high polyreactivity
QVQLVESGGGLVQAGGSLRLSCAASGFTFHNNVMGWYRQAPGKERELVATISKSGGSTYYADSVKGRFTISRDNAKNTVYLQMNSLKPEDTAVYYCAAETPTHDEWGQGTQVTVSS | high polyreactivity
QVQLVESGGGLVQAGGSLRLSCAASGFIFTIYVMGWYRQAPGKERELVAAISKSVGRTYYADSVKGRFTISRDNAKNTVYLQMNSLKPEDTAVYYCAAVYVKYYGGSYDYWGQGTQVTVSS | high polyreactivity
QVQLVESGGGLVQAGGSLRLSCAASGFTFRRYAMGWYRQAPGKERVLVAAITRGSSTYYADSVKGRFTISRDNEKNTVYLQMNSLKPEDTAVYYCAAAGFWSRPSDYWGQGTQVTVSS | low polyreactivity
QVQLEESGGGLVQAGGSLRLSCAASGRTFFPYAMGWYRQAPGKERELVAAISHGGRTYYADSVKGRFTISRDNAKNTVYLQMNSLKPEDTAVYYCNALSARSYYWGQGTQVTVSS | high polyreactivity
QVQLVESGGGLVQAGGSLRLSCAASGRISSAYAMGWYRQAPGKERELVAAISSGTRTNYADSVKGRFTMSRDNAKNTVYLQMNSLKPEDTAVYYCNAVPGYVYYYQYWGQGTQVTVSS | high polyreactivity
QVHLVESGGGLVQAGGSLRLSCAASGITFYRYAMGWYRQAPWKERELVAAITVGGRTYYADSVKGRFTISRDNAKNNVYLQMNSLKPEDTAVYYCNVRTLHSVRGYYYWGQGTQVTVSS | high polyreactivity
QVQLVESGGGLVQAGGSLRLSCAASGRIFGAYAMGWYRQAPGKERELVAAISSRGGNTYYADSVKGRFTISRDNAKNTVYLQMNSLKPEDTAVYYCAARHDKRRQYYVGQSDFDYWGQGTQVTVSS | low polyreactivity
QVQLVESGGGLVQAGGSLRLSCAASGITFGYYAMGWYRQAPGKERELVAAISWSGDSTYYADSVKGRFTISRDNAKNTVSLQMNSLKPEDTPVYYCTRGSSWEYGAEYNYWGQGTQVTVSS | low polyreactivity
QVQLVDSGGGLVQAGGTHRLSCAASGFTFRRNAMGWYRQAPGKERELVAAITYNGGTSYYADSVKGRFSISRDNAKNTVYLQMNSLKPEETAVYYCAAVDSYSPYVSHDNWGQGTKVTVSS | low polyreactivity
QVQLVESGGGLVQAGGSLRLSWAASGSIITSNGMGWYRQAPGKERELVAAITSGTSTYYADSVKGRFTISRDNAKNTVYLQMNSLKPEDTAVYYCAAGRWWVYRYARYYYWGQGTQVTVSS | high polyreactivity
